According to US11466067B2 (priority 2019, dated 2022):

How the values were obtained:
ulcerative colitis = assay: Phase 1b multiple ascending dose in patients with active UC; assay type: in vivo, human
Experimental: Data was gathered on the safety, tolerability, pharmacokinetics, pharmacodynamics, and initial clinical response following a multiple ascending dose (MAD) of the IL-10 delivery construct in adult patients with active UC over 14 days of treatment. […] A coating with a weight ratio of 50:50 of Eudragit® L30D55: Eudragit® FS30D was applied with a thickness of 14.8 to 16.0 mg/cm^2 and a weight of approximately 76 mg to each capsule. Placebo capsules were generated using similarly coated empty capsules.
A total of four cohorts were dosed with either 1 mg, 3 mg, 10, mg or 30 mg of the IL-10 delivery construct, randomized 3:1 to receive the IL-10 delivery construct or a placebo administered once daily for fourteen days. The goal of the trial was to assess the safety of the IL-10 delivery construct and any change in UC disease activity, through endoscopy, histology, biomarkers, and serum samples. Stool samples and colonic biopsies were obtained at baseline and day 14 of treatment to assess fecal calprotectin as well as histology based upon blinded central read of the Geboes scoring system. Fecal calprotectin is an objective marker of clinical response in UC studies and the Geboes scoring system is a measure of histological response. The Geboes scoring system of this example used a 0-22 point histologic scoring system in which higher scores represent more severe disease.

circulating cytokines [1] = assay: Plasma cytokines by MSD V-plex Proinflammatory Panel 1 (Example 14); assay type: in vivo, mice
Description: Plasma cytokines were quantified using the V-plex Proinflammatory Panel 1 Mouse Kit. Plasma IL-1Ra was quantitated by sandwich immunoassay using an antibody pair from the Mouse IL-1Ra/IL-1F3 DuoSet ELISA (R&D Systems #DY480), Streptavidin SULFO-TAG Labeled (MSD #R32AD-1), Multi-Array 96 Plate Pack, SECTOR Plate MSD #L15XA-3 and Read Buffer T (4×) (MSD #R92TC-2). Samples were read on the QuickPlex SQ 120 plate reader (Meso Scale Discovery, Rockville, Md.).

circulating cytokines [2] = conditions: 8.45 mg/kg, Luminex

B1: IL-10 delivery construct: recombinant homodimeric fusion protein: N-terminal methionine, cholix386 domain, polyGlySer spacer, recombinant human IL-10 (protein)
chain: MVEEALNIFDECRSPCSLTPEPGKPIQSKLSIPSDVVLDEGVLYYSMTINDEQNDIKDEDKGESIITIGEFATVRATRHYVNQDAPFGVIHLDITTENGTKTYSYNRKEGEFAINWLVPIGEDSPASIKISVDELDQQRNIIEVPKLYSIDLDNQTLEQWKTQGNVSFSVTRPEHNIAISWPSVSYKAAQKEGSRHKRWAHWHTGLALCWLVPMDAIYNYITQQNCTLGDNWFGGSYETVAGTPKVITVKQGIEQKPVEQRIHFSKGNAMSALAAHRVCGVPLETLARSRKPRDLTDDLSCAYQAQNIVSLFVATRILFSHLDSVFTLNLDEQEPEVAERLSDLRRINENNPGMVTQVLTVARQIYNDYVTHHPGLTPEQTSAGAQAGGGGSGGGGSGGGGSPGQGTQSENSCTHFPGNLPNMLRDLRDAFSRVKTFFQMKDQLDNLLLKESLLEDFKGYLGCQALSEMIQFYLEEVMPQAENQDPDIKAHVNSLGENLKTLRLRLRRCHRFLPCENKSKAVEQVKNAFNKLQEKGIYKAMSEFDIFINYIEAYMTMKIRN
modifications: homodimer
FCP activity at higher doses (ulcerative colitis; 10 mg and 30 mg): diminution of activity | Geboes score of one UC patient, pre-dose to post-treatment (ulcerative colitis; 10 mg, 14 days, 22 point scale): improved from a score of 15 to a score of three | tolerability in patients with UC (ulcerative colitis; 1-30 mg once daily, 14 days): well tolerated | CRP levels vs placebo (ulcerative colitis; 1 and 3 mgs, baseline CRP greater than 5 mg/L): greater reductions in CRP levels | patients with reduced Geboes score (ulcerative colitis; 14 days, active patients): 60% | TEAEs in the 12 active patients (ulcerative colitis; human, in vivo): 20 | suppression of induction of plasma IL-4 (trend) (circulating cytokines [1]): 62% | suppression of induction of plasma IL-6 (trend) (circulating cytokines [1]): 61% | suppression of induction of plasma IL-12p70 (trend) (circulating cytokines [1]): 65% | suppression of induction of plasma KC/GRO (trend) (circulating cytokines [1]): 51% | plasma IL-1β and IL-2 vs Vehicle (circulating cytokines [1]; p<0.05): significantly reduced | reduction of plasma IL-6 vs Vehicle (circulating cytokines [2]): 33% | reduction of plasma IL-23 vs Vehicle (circulating cytokines [2]): 73%
